In the MegaScale stability set (Tsuboyama et al. 2023):

B1: EEHEE_rd4_0763 (parent)
chain: LTVHVGNVTYHFDNPEQAEEWAKRMAKKYQGQIHVKDGQFRIE
B2: EHEE_rd2_1257 (parent)
chain: EEERTFTNEEEARKAKKEAEKRGLRVTVTKDGTTWRVRIG

Variants of: B1
Assay: folding stability dG (cDNA display proteolysis); higher = more stable
Settings: PBS, room temperature

Folding stability dG [kcal/mol]: each site, then its substitutions
A22: R 1.01 | Q 0.611 | S 0.821 | Y 1.06 | N 0.383
H34: I 2.21 | F 1.87 | S 1.83 | A 1.56 | E 1.5 | Y 1.79
I42: G 1.2 | Q 0.913 | F 1.02 | L 0.845 | V 1.58 | S 1.06
E43: R 1.36 | L 1.76 | P 1.15 | V 1.99 | Q 1.29
Q30: R 1.79 | P 1.19
N14: V 1.39 | G 1.03
L1: D 0.974 | R 1.7 | C 2.7 | S 2.03 | N 2.06 | E 0.877
K23: G 1.02 | D 0.88
Q17: S 1.64 | N 1.38 | Y 1.53 | T 1.57 | R 1.57 | E 1.84 | I 1.51
I33: G 0.819 | K 0.715 | Y 1.2 | E 0.735 | S 0.865
V5: R 0.733 | Y 1.41 | G 0.415 | S 0.647 | Q 0.495 | M 1.48 | P 0.391
A18: D 0.132 | V 0.996 | W 1.11 | H 0.576
P15: I 1.78 | C 1.86 | L 1.86 | G 1.23 | F 1.94 | Y 2.17 | Q 1.6
E16: R 1.74 | Q 1.69 | I 1.66 | H 1.85 | G 1.48
T9: Q 1.29 | P 0.963 | R 1.4 | S 1.4 | C 2.01
K27: C 2.38 | A 1.83 | N 1.39 | I 1.76 | H 1.53 | G 1.13 | T 1.58 | Y 1.51
R24: L 1.94 | W 1.67 | A 1.68 | E 1.43 | Y 1.87 | I 1.75
Y29: E 0.616 | Q 0.696 | V 1.27 | H 1.32 | S 0.788
Q32: I 2.03 | K 1.71 | M 1.49 | E 1.56
N7: Q 1.56 | C 2.65 | F 1.62 | Y 1.62 | L 1.55 | G 1.71
M25: Q 0.839 | T 0.731 | D -0.162 | L 1.52 | N 0.629 | E 0.535
F12: L 0.531 | D -0.211 | Q -0.143 | G -0.264 | K -0.024
W21: M 0.944 | A 0.89 | H 0.696 | V 0.517 | Q 0.239
K36: D 1.51 | E 1.84 | S 1.69 | Q 1.79 | I 2.15 | T 1.73 | W 1.65 | P 0.849 | F 1.79 | V 2.24 | L 1.7
K28: V 1.43 | D 0.954 | A 1.23 | I 1.61
R41: Q 1.66 | Y 3.29 | N 1.66 | C 2.95 | G 1.3 | P 1.21 | V 2.45 | T 2.02
F40: Y 1.78 | L 2.01 | H 1.02 | I 2.25 | N 1.14 | M 1.74
A26: P 0.273 | V 1.09 | D 0.393 | H 0.862 | K 0.73 | G 0.842
D13: W 1.4 | C 2.24 | N 1.72 | R 1.47 | Q 1.57 | M 1.49 | P 1.45 | Y 1.34 | I 1.48
V35: Q 1.2 | F 2.22 | A 0.96 | E 1.21 | N 1.18 | P 0.636 | K 1.17 | S 1.15 | Y 2.19
H11: I 1.56 | R 1.58 | N 1.25 | M 1.49 | W 1.71 | E 1.23 | V 1.61 | Y 1.85 | Q 1.45 | D 0.923 | P 0.551 | F 1.75 | C 2.74 | L 1.5
E19: Q 1.58 | S 1.39 | Y 2.35 | H 1.72 | K 1.62
D37: E 1.23 | K 0.884 | F 0.868 | V 0.669 | H 0.769
G38: C 2.15 | R 0.874 | V 0.809 | N 1.36 | W 0.872
V3: R 0.352 | F 1.03 | M 0.815 | T 0.36 | E 0.235 | Q 0.344 | W 0.755
Y10: V 0.913 | G 0.153 | E 0.183 | L 0.997 | R 1.18
Q39: Y 1.37 | P 0.884 | K 1.23 | G 1.7 | W 1.24 | T 1.29
H4: M 1.8 | E 1.24 | N 1.27 | V 1.97 | R 1.82 | K 1.68 | P 0.289 | D 0.78
T2: L 1.64 | N 1.14 | Q 1.53 | A 1.51 | D 1.22 | V 1.61
E20: S 1.62 | M 1.7 | L 1.69 | G 1.18 | V 1.35 | A 1.87
V8: D 1.19 | H 1.72 | W 1.81 | N 1.41 | E 1.36 | T 1.53
G31: H 1.46 | R 1.07 | D 0.903 | L 2.08
G6: K 1.18 | W 1.5 | T 0.772 | H 1.69 | A 1.41

Variants of: B2
Assay: as above
Settings: PBS, room temperature

Folding stability dG [kcal/mol]: each site, then its substitutions
V37: W 0.056 | Y -0.22 | P 0.556 | L 2.17 | I 1.7 | M 1.61 | E 0.078 | F 0.864 | C 1.05 | D 0.331
R36: P 0.209 | Q 1.23 | I 3.03 | L 2.15 | N 1.12 | A 0.9 | E 0.524 | V 2.78 | F 2.23 | W 1.7 | K 2.08 | C 1.91 | Y 2.47 | T 2.15 | H 1.81 | S 1.17 | M 1.65 | G -0.199
I39: K -0.799 | P 0.239 | R -0.309 | G -0.238 | W 1.62 | N -0.51 | T 1.27 | E 0.258 | H 0.156 | A 0.675 | L 1.31 | M 1.37 | Q 0.241 | V 1.64 | Y 1.66 | S 0.837 | F 1.75
G40: R 2.08 | L 2.71 | N 2.07 | D 2.18 | S 2.6 | P 0.916 | K 2.07 | Y 3.08 | V 2.73 | Q 2.38 | W 3.26 | A 2.19 | M 2.55 | T 2.51 | F 3.04 | I 2.71 | E 2.56 | H 2.68
R38: K 2.08 | I 2.59 | L 2.27 | D 1 | H 1.94 | Q 1.74 | V 2.45 | Y 2.17 | W 2.11 | G 0.853 | S 1.93 | F 2.23 | E 1.48 | A 1.71 | M 2.04 | T 2.33 | N 1.71
